Measured values reported in patent US20240122985A1, “ANTIBODIES, COMBINATIONS COMPRISING ANTIBODIES, BIOMARKERS, USES & METHODS” (KYMAB LIMITED, priority 2016, published 2024).
Values belong to the molecule of their own block, whether it stands above or below them.

What was measured:
[1] = system: Rhesus Macaque Graft versus Host Disease (GvHD) model; details: Example 9, post-HSCT prophylaxis, Rhesus macaque (FIG. 7)
Description: The effectiveness of antibody 2D10 IgG4PE as a monotherapy prophylactic for the prevention of GvHD was examined in a Rhesus Macaque model of haploidentical hematopoietic stem cell transplantation (HSCT).
All transplants were between half-sibling pairs that are mismatched at one MHC haplotype (“haploidentical-HCTs”). Recipient animals had irradiation based pre-myeloablative pre-transplant conditioning using a linear accelerator. Dose rate: 7cGy/min. Dose 1020 cGy given in 4 fractions. The leukapheresis donor animal underwent GCSF mobilisation and underwent leukapheresis using a Spectra Optia apheresis machine.
2D10 IgG4PE was dosed at 10 mg/kg i.v. according to a planned dosing schedule to take place on Day −2, Day+5, Day+12, Day+19, Day+26, Day+33, Day+40, Day+47 post-transplant.
Samples were taken during the course of the study to monitor donor chimerism (Table 4) and white blood cell counts. The primary end point was based on survival, with a survival to 15 days deemed to be a sign of successful prophylactic therapy (and compared to the documented survival of 6-8 days with no prophylaxis; Miller et al. 2010, supra). Though full pathology and histology with GvHD grading scores, markers of T-cell proliferation and activation (such as Ki-67 and granzyme B) and gene array analysis are planned, they were not available for inclusion at the time of drafting.
Scoring of clinical symptoms was based on observational assessments and clinical chemistry, classified according to the criteria set out in Table 5.
A further rhesus macaque GvHD study was conducted to determine the effect of combined post-HSCT prophylaxis with 2D10 IgG4PE and rapamycin. The study was performed as described in Example 7, with dosing as follows: 2D10 IgG4PE was administered i.v. at 10 mg/kg on Day −2, Day +5, Day+12, Day+19, Day+26, Day+33, Day+40, Day+47 and Day+56 post-transplant. Rapamycin was administered at a loading dose of 0.1 mg/kg i.m. on Day −14, followed by daily i.m. maintenance doses of 0.025 mg/kg until the scheduled termination of the study at Day+100. Rapamycin dosing was adjusted to maintain serum trough levels within the range 5-15 ng/mL.
This was a cohort study in NHP designed to determine the clinical, immunologic and molecular outcomes of OX40L blockade during allogeneic HCT. Two cohorts of transplant recipients were studied: (1) Allogeneic transplants using the OX40L-blocking human IgG4-PE antibody 1D05 (described as ‘KY1005’ in this Example 11) as monotherapy for GVHD prophylaxis (abbreviated as ‘KY1005’; n=4). KY1005 was given at a dose of 10 mg/kg starting on Days −2 and then once weekly until discontinuation on Days 54 (FIG. 8E). […] (2) Allogeneic transplants using KY1005 in combination with Sirolimus (Rapamycin) ([…]) for GVHD prophylaxis (abbreviated as ‘KY1005/Siro’; n=5). KY1005 was given at a dose of 10 mg/kg starting on Days −2 and then once weekly until discontinuation on Days 54 (FIG. 8P). […] These two OX40L-blockade groups were compared to the following cohorts, aspects of which have been described previously (Furlan et al., 2015; Furlan et al., 2016; Miller et al., 2010) (1) Autologous transplants (abbreviated as ‘Auto’, n=6 for clinical and flow cytometric data and n=4 for transcriptomic analysis) (2); Allogeneic transplants with no GVHD prophylaxis (abbreviated as‘No Rx’, n=11 for clinical and flow cytometric data and n=4 for transcriptomic analysis). (3) Allogeneic transplants using Sirolimus monotherapy for GVHD prophylaxis (LC laboratories, abbreviated as ‘Siro’, n=11 for flow cytometric analysis, n=4 for transcriptomic analysis).

Rhesus monkey OX40L = test: Surface plasmon resonance, apparent affinity to rhesus OX40L; assay type: binding, Rhesus (Macaca mulatta); details: SPR, 25° C.; CNROR = Cannot resolve off-rate
Description: (§1) SPR analysis was carried out using the ProteOn™ XPR36 Array System (BioRad). Anti-mouse IgG (GE Healthcare BR-1008-38) was immobilised on a GLM biosensor surface using amine coupling, the surface was then blocked using 1 M ethanolamine. Test antibodies were captured on this surface and recombinant hOX40L (human and rhesus) were used at a single concentration of 256 nM, binding sensorgrams were double referenced using a buffer injection (i.e. 0 nM) to remove baseline drift and injection artefacts. Apparent affinities for the OX40L-antibody interaction were determined using the 1:1 model inherent to the ProteOn XPR36 analysis software. The assay was run using HBS-EP (Teknova) as running buffer and carried out at 25° C.

CHO-S expressed hOX40L = molecular target: T1, CHO-S expressed hOX40L (Homo sapiens, UniProt P23510); test: Binding to CHO-S expressed hOX40L and receptor neutralisation (FACS); assay type: cell-based
T1 construct: CHO-S cells (optionally transfected with full length human OX40L); expressed in transfected cells
T1 sequence (P23510 1-183): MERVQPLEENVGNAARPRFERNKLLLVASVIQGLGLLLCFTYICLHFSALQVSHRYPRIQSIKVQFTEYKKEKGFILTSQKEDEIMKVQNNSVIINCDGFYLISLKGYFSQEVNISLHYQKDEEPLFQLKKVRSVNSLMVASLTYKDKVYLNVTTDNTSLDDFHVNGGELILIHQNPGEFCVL
Description: CHO-S cells expressing hOX40L or untransfected CHO-S cells, diluted in FACS buffer (PBS+1% w/v BSA+0.1% w/v NaN3) were distributed to a 96 well V-bottom plate (Greiner) at a density of 1×10^5 cells per well. Cells were washed with 150 μL of PBS and centrifuged at 300×g for 3 min. Supernatant was aspirated and 150 μL of PBS added. This wash step was repeated.
25 μL of hybridoma supernatant or purified antibody from hybridoma supernatant diluted in FACS buffer was added to the washed cells and incubated for 10-15 minutes. Reference Antibody or mouse IgG1 control antibody (Sigma) were diluted in FACS buffer to 20 μg/mL and 25 μL added to cells. 25 μL of human OX40R Fc (in-house) diluted to 1000 ng/mL in FACS buffer were then added to wells. Cells were incubated at 4° C. for 30 minutes.
To detect antibody and receptor binding, 50 μL of Goat anti-human IgG-PE (Jackson ImmunoResearch) and APC anti-mouse IgG (Jackson ImmunoResearch) diluted 1 in 500 in FACS buffer was added to the cells. Cells were incubated 30 minutes at 4° C. in the dark.
To fix cells 100 μL 2% v/v paraformaldehyde was added and cells incubated for 30 minutes at 4° C., cells were pelleted by centrifugation 300×g and the plates and resuspended in 50 μL of FACS buffer. PE and APC signal intensity (geomean) was measured by flow cytometry using a BD FACS Array instrument.
% of control binding was calculated using geomean fluorescence as described in equation 1 where total binding was defined as reference antibody at 10 μg/mL and non-specific binding as mouse IgG1 antibody at 10 μg/mL. % receptor binding was calculated using Equation 3.

recombinant hOX40L = molecular target: T2, recombinant hOX40L (Homo sapiens, UniProt P23510); test: Surface plasmon resonance, apparent affinity to human OX40L; assay type: binding; details: SPR, 25° C.; CNROR = Cannot resolve off-rate
T2 construct: cDNA encoding the extracellular domain of human OX40L was cloned into a pREP4 expression plasmid; isoleucine zipper (N); made in house; host or cells: FreeStyle CHO-S (transient)
Description: as §1

Rhesus monkey OX40L, sequence (as listed by the source): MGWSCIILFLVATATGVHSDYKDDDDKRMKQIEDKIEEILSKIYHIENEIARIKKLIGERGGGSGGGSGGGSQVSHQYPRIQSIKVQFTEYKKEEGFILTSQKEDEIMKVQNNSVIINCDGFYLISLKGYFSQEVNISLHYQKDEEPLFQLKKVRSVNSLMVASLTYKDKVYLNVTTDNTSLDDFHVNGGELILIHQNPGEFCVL
T2 sequence (P23510 with tags, fused parts or gaps): as the sequence (as listed by the source) above, with Q77R, E95K counted along it

Molecule: CO[C@H]1C[C@@H]2CC[C@@H](C)[C@@](O)(O2)C(=O)C(=O)N2CCCC[C@H]2C(=O)O[C@H]([C@H](C)C[C@@H]2CC[C@@H](O)[C@H](OC)C2)CC(=O)[C@H](C)/C=C(\C)[C@@H](O)[C@@H](OC)C(=O)[C@H](C)C[C@H](C)/C=C/C=C/C=C/1C [rapamycin, rapamycin (sirolimus), reference compound]
median survival time, MST [1]: 17 days

Apparent Affinity RhsOX40L (nM) (Rhesus monkey OX40L): CNROR
FACS Binding (CHO-S expressed hOX40L): YES
Apparent Affinity hOX40L (nM) (recombinant hOX40L): CNROR
B1: 2D10 (hybridoma): murine/human chimeric anti-OX40L antibody purified from hybridoma supernatant (antibody, V domains shown)
VH: EVQLVESGGGLVQPGGSLRLSCAASGFTFSNYAMNWVRQAPGKGLEWVSTISGSGGATRYADSVKGRFTISRDNSRNTVYLQMNSLRVEDTAVFYCTKDRLIMATVRGPYYYGMDVWGQGTTVTVSS
VL: DIQMTQSPSSLSASVGDRVTITCRASQSISSYLNWYQQKPGKAPNLLIYAASSLQSGVPSRFSGSGSETDFTLTISSLQPEDFATYYCQQSHSVSFTFGPGTKVDIK

Apparent Affinity RhsOX40L (nM) (Rhesus monkey OX40L): CNROR
FACS Binding (CHO-S expressed hOX40L): YES
Apparent Affinity hOX40L (nM) (recombinant hOX40L): CNROR
B2: 10A07 (hybridoma): murine/human chimeric anti-OX40L antibody purified from hybridoma supernatant (antibody, V domains shown)
VH: EVQLVESGGVLVQPGGSLRLSCAASGFTFSSYIMTWVRQAPGKGLEWVSGISGSGGGTYYADSMKGRFTISRDNSKNTLYLQMNSLRVEDTAVYYCAKDRLGPITLVRGGYYYGMDVWGQGTTVTVSS
VL: DIQMTQSPSSLSASVGDRVTITCRASQSISDYLNWYQQKPGKAPKFLIYAASSLQSGVPSRFSGSGSGTDFTLTVSSLQPEDFATYYCQQSYSTPRTFGQGTRVEIK

Apparent Affinity RhsOX40L (nM) (Rhesus monkey OX40L): CNROR
Apparent Affinity hOX40L (nM) (recombinant hOX40L): CNROR
B3: 10A07 (human): fully human anti-human OX40L monoclonal antibody; VH Seq ID No:2, VL Seq ID No:16 (antibody, V domains shown)
VH: B2 VH
VL: B2 VL
modifications: 10A07 - VH Amino Acid Sequence; 10A07 - VL Amino Acid Sequence

FACS Binding (CHO-S expressed hOX40L): YES
B4: 9H04 (hybridoma): anti-OX40L antibody from hybridoma; VH Seq ID No:66, VL Seq ID No:80 (antibody, V domains shown)
VH: QVQLVESGGGLVKPGGSLRLSCAASRFTLSDYYMTWIRQAPGKGLEWVSYISSSGNTIYYADSVKGRFTISRDNAKNSLYLQMNSLRAEDTAVYYCARDLSGSYWDYYYGMDVWGQGTTVTVSS
VL: AIQLTQSPSSLSTSVGDRVTIACRASQGINNALAWYQQKPGKAPKLLIYDASSLESGVPSRFSGSGSGTDFTLTISSLQPEDFATYYCQQFNSYPRTFGQGTKVEIK
modifications: 09H04 - VH Amino Acid Sequence; 09H04 - VL Amino Acid Sequence
